Test results taken from patent publication US11986450B2, “Methods and compositions for treating infection and inflammation with selenocyanate” (National Jewish Health, priority 2017, dated 2024).

Substrate: N#CSO
Assay: Kinetic analysis of HOSCN metabolism
Type: biochemical
Conditions: other: recombinant mouse Sec-TrxR
Excerpt: FIGS. 3A-3B. Kinetic analysis of HOSCN metabolism by recombinant mouse Sec-TrxR and recombinant E. coli Cys-TrxR. […] Sec-TrxR forms that lack a selenocysteine (Sec489Cys) or truncated by the last 8 amino acids (D8) had diminished activity.

B1: recombinant mouse Sec-TrxR (Mus musculus) (protein)
chain: GGQQSFDLLVIGGGSGGLACAKEAAQLGKKVAVADYVEPSPRGTKWGLGGTCVNVGCIPKKLMHQAALLGGMIRDAHHYGWEVAQPVQHNWKTMAEAVQNHVKSLNWGHRVQLQDRKVKYFNIKASFVDEHTVRGVDKGGKATLLSAEHIVIATGGRPRYPTQVKGALEYGITSDDIFWLKESPGKTLVVGASYVALECAGFLTGIGLDTTVMMRSIPLRGFDQQMSSLVTEHMESHGTQFLKGCVPSHIKKLPTNQLQVTWEDHASGKEDTGTFDTVLWAIGRVPETRTLNLEKAGISTNPKNQKIIVDAQEATSVPHIYAIGDVAEGRPELTPTAIKAGKLLAQRLFGKSSTLMDYSNVPTTVFTPLEYGCVGLSEEEAVALHGQEHVEVYHAYYKPLEFTVADRDASQCYIKMVCMREPPQLVLGLHFLGPNAGEVTQGFALGIKCGASYAQVMQTVGIHPTCSEEVVKLHISKRSGLEPTVTGCUG
Q: For B1, which Km is on record?
A: The Km was 30 µM.
